Values quoted from earlier work in paper PMC4160827.

Target: HIF-1α CODD (Homo sapiens) (UniProt Q16665)

Kd: 14 µM
Substance: PHD2 (from UniProt Q9GZT9)
